{
  "source": "paper PMC10998906",
  "about": "(NPJ Vaccines, 2024)",
  "binders": {"B1": {"name": "CR9114 Fab (Fab, V domains shown)", "VH": "QVQLVQSGAEVKKPGSSVKVSCKSSGGTSNNYAISWVRQAPGQGLDWMGGISPIFGSTAYAQKFQGRVTISADIFSNTAYMELNSLTSEDTAVYFCARHGNYYYYSGMDVWGQGTTVTVSS", "VL": "QSALTQPPAVSGTPGQRVTISCSGSDSNIGRRSVNWYQQFPGTAPKLLIYSNDQRPSVVPDRFSGSKSGTSASLAISGLQSEDEAEYYCAAWDDSLKGAVFGGGTQLTVL"}},
  "molecular_target": "HA (NL03, A/Netherlands/213/2003(H3N2)) (Influenza A virus …, strain)",
  "assay": "negative-stain EM",
  "details": "both partners purified",
  "data": [
    {"binder": "B1", "values": [
      {"measurement": "stoichiometry N", "value": 1, "unit": "Fab per particle"}
    ]}
  ]
}
